Reference: the nanobody polyreactivity screen of Harvey et al. (2022)

Experiment: yeast display, Sf9 membrane polyspecificity reagent, FACS + sequencing; frameworks hold sequencing errors
In short: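 Nanobodies came from a synthetic yeast display library in Saccharomyces cerevisiae BJ5465, induced with galactose for 36–48 hours and stained for 1 hour at 4 °C with 10% biotinylated, detergent-solubilized Sf9 membrane reagent. Cells were enriched on streptavidin microbeads and then FACS-sorted, with low and high (top ~1%) gates set on anti-HA fluorescence for expression and streptavidin fluorescence for reagent binding. Each polyreactivity label reflects the gate a clone came from. Genes were amplified by colony PCR, sequenced by MiSeq 2 × 250 and filtered by CDR length.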

QVQLVESGGGLVQAGGSLRLSCAASGSIFYLNAMGWYRQAPGKERELVATISNGGSTNYADSVKGRFTISRDNAKNTVYLQMNSLKPEDTAVYYCAAASGGTVVGEGDYWGQGTQVTVSS
polyreactivity (PSR sort gate): low polyreactivity

QVQLVESGGGLVQAGGSLRLSCAASGSIFKVNAMGWYRQAPGKERELVAAISGNTDTTYYADSVKGRFTISRDNAKNTVYLQMNSLKPEDTAVYYCAADAYIKYYFRWINMYYWGQGTQVTVSS
polyreactivity (PSR sort gate): high polyreactivity

QVQLVESGGGLVQAGGSLRLSCAASGSTFTQYAMGWYRQAPGKERELVATISRRGTRTYYADSVKGRFTISRDNAKNTVYLQMNSLKPEDTAVYYCAADNGPYRTIGYDSWGQGTQVTVSS
polyreactivity (PSR sort gate): high polyreactivity

QVQLVESGGGLVQAGGSLRLTCAASGFTFRYYAMGWYRQAPGKERELVASITGGGRTYYADSVKGRFTISRDNAKNTVYLQMNSLKPEDTAVYYCATLLAYRLGSGYDSWGQGTEVTVSS
polyreactivity (PSR sort gate): high polyreactivity

QVQLVESGGGLVQAGGSLRLSCAASGIIFTYYAMGWYRQAPGKERELVAAISVSGSSTYYADSVKGRFTISRDNAKNTVYLQMNSLKPEDTAVYYCAARYQWGTRGFGYWGQGTQVTVSS
polyreactivity (PSR sort gate): high polyreactivity

QVQLVESGGGLVQAGGSLRLSCAASGRTFSSYAMGWYRQAPGKERELVAAIDSGGNTYADSVKGRFTISRDNAKNTVYLQMNSLKPEDTAVYYCAVDGGEFSSYGYWGQGTQVTVSS
polyreactivity (PSR sort gate): low polyreactivity

QFQLVESGGGLVQAGGSLRLSCAASARTFVSNAMGWDRQAPGKERELVADITSGGSTDYADSVKGRFTSSRDNAKNTVYVQMNSVKPEDTAVSYCATDLWRWYGWFDYWGQGTQVTVSS
polyreactivity (PSR sort gate): low polyreactivity

QVQLVESGGGLVQAGGSLRLSCAASGRTFQRNAMGWYIQAPGKERELVATITTNGGSTYYADSVKGRFTISRDNAKNTVYLQMNSLKPEDTAVYYCAAPFNPRVRTLRSVRMDYWGQGTQVTVSS
polyreactivity (PSR sort gate): low polyreactivity

QVQLVESGGGLVQAGGSLRLSCAASGFIFRRYAMGWYRQAPGKERELVAAITRSGGSTYYADSVKGRFTISRDTSKNTVYLQMNSLNPEDTAVYYCATKSSGPVLGYGYDYWGQGTQVTVSS
polyreactivity (PSR sort gate): high polyreactivity

QVQLVESGGGLVQAGGTLRLSCAPSGYTFVYNAMGWYRQAPGKEREFVAAISWSGTSTRYADSVKGRFTISRDNAKNTVYLQMNSLKPEDTAVYYCAARRRSAQSGSYNHWGQGTQVTVST
polyreactivity (PSR sort gate): high polyreactivity

QVQLVESGGGLVQAGGSLRLSCAASGITFYRNAMGWYRQAPGKERELVAAITWNGGRTYYADSVKGRFTISRDYAKNTVYLQMNSLKPEDSAVYYCAKRYGSTQSRYVYWGQGTQVTVSS
polyreactivity (PSR sort gate): high polyreactivity

QVQLVESGGGLVQAGGSLRLTCAASGFIFRYYAMGWYRQAHGKEMELVAAIDYSGGSTNYADSVKGRFTISRDNSKNTVYLQMNSLKPEDTAVYYCKAEYTWHRGYDYWGLGTQVTVSS
polyreactivity (PSR sort gate): low polyreactivity

QVQLVESGGGLVQAGGSLRLSCAASGSNFTFYAMGWYRQAPGKERELVAAISKGGDRTYYADSVKGRFTISRDNAKNTVYLQMNSLKPEDTAVYYCARLVRPGRFGDGDYWGQGTQVTVSS
polyreactivity (PSR sort gate): low polyreactivity

QVQLVESGGGLVQAGGSLRLSCAASGSIFGANTMGWYRQAPGKERELVAGITSGARTYYADSVKGRFTISRDNAKNTVYLQMNSLKPEDTAVYYCAADTWKVFGVDYWGQGTQVTVSS
polyreactivity (PSR sort gate): high polyreactivity

QVQLVESGGGLVQAGGSLRLSCAASGSTFTYYAMGWYRQAPGKERELVAAIDFSGTSTYYADSVKGRFTISRDNAKNTVYLQMNSLQPEDTAVYYCAASQSWYWGGAQDNGEFGYWGQGTQVTVSS
polyreactivity (PSR sort gate): low polyreactivity

QVQLVESGGGLVQAGGSLRLSCAASGITFDKYAMGWYRQAPGKERELVAAISGSDGSTYYADSVKGRFTISRDNAKNTVYLQMNSLKPEDTAVYYCAAESEYAGTYEYDYWGQGTQVTVSS
polyreactivity (PSR sort gate): low polyreactivity

KVQLVESGGGLVQAGGSLRLSCAASGSIFHNYDMGWYRQAPGKERELVADISRGGDTNYADSVKGRFTISRDNAKNTVYLEMKSLKPEDTAVYYCNATYWILDFPWWRETFDYWGQGTQVTVSS
polyreactivity (PSR sort gate): low polyreactivity

QVQLVESGGGLVQAGGSLRLSCAASGNAMGWYRPAPGKERELVAAITRRGGSTYYADSVKGRFTISRDNAKNTVYLQMNSLKPEDSAVYYCAADNPSYNLWYGYWGLGTQVTVSS
polyreactivity (PSR sort gate): low polyreactivity

QVQLVESGGGLVQAGGRLRLSCAASGNTLRGYAMGWYRPAPGKERELVSAISYSSVNTYYADSVKGRFTISRDNAKNTVYLQMNSLKPEDTAVYYCAADYYYYRRTQYDLRGYPYYYWGQGTQVTVSS
polyreactivity (PSR sort gate): low polyreactivity

QVQLVESGGGLVQAGGSLRLSCAASGLTFNKNAMGWYRQAPGKESEFVAAITRRGGSTYYADSVKGRFTISRDNAKNTVFLQMNSLKPEDTAVYYCAVYPASVNPYHYDYWGQGTQVTVSS
polyreactivity (PSR sort gate): high polyreactivity

QVQLVESGGGLVQAGGSLRLSCAASGSIFDVYAMGWYRQAPGKERELVAAITGGGSTYYADSVKGRFTISRDNAKNTVYLQMNSLKPEDTAVYYCNADRRRRSGGFAGWHFQRNDYWGQGTQVTVSS
polyreactivity (PSR sort gate): low polyreactivity

QVQLVESGGGLVQAGCSLRLSCAASGIIYINYAMGWYRQAPGKERELVAVITRGGSTYYADSVKGRFTISRDNAKNTVYLLMNSLKPEDTAVYYCNARYLSWWTGRFNYWGQGTQVTVSS
polyreactivity (PSR sort gate): high polyreactivity

QVQLVESGGGLFQAGGRLRLSCAASGITFVYYAMGWSRQAPGKERELVAAISWGGGSTYYADSVKGRFTISSDNAKNTVYLQMNSLKPEDTAVYYCAADAYVNATPEVSAMGYWGQGTQVTVSS
polyreactivity (PSR sort gate): low polyreactivity

QVQLVESGGGLVQAGGSLRLSCAASGSIFFSSAMGWSRQEPGKERELVAAISSGASTYYADSVKGRFTISRDNAKNTVYLQMNSLKPEDTAVYYCAARGYRLVPVDFYYWGQGTQVTVSS
polyreactivity (PSR sort gate): low polyreactivity

QVQLVESGGGLVQAGGSLRLSWAASGFIFDPNAMGWYRQAPGKERDLVAAISSSGGRTYYADSVKGRFTISRDNAKNTVYLQMNSLKPEDTAVYYCATDTSVQGQEYDYWGQGTQVTVSS
polyreactivity (PSR sort gate): low polyreactivity

QVQLVESGGGLVQAGGSLRLSCAASGRIFQYYAMGWYRQAPGKERELVAAISSRGGSTSYADSVKGRFTISRDKAKNTVYLQMNSLKPEDTAVYYCNAKSRISYWYDYWGQGTQVTVSS
polyreactivity (PSR sort gate): high polyreactivity

QVQLVESGGGLVQAGGSLRLSCAASGSIFVDYAMGWYRQAPGKERELVAAITSGGRTNYADSVKGRFTISRDNAKNTVYLQMKSLKPEDTAVYYCNKTRYTNYYTTTFDYWGQGTQVTVSS
polyreactivity (PSR sort gate): low polyreactivity

QVQLVESGGGLVQAGGGLRLSCAASGSYYKYYAMGWYRQAPGKEREFVAAITRSGGSTYYADSVKGRFTISRDNAKNTDYLQMNSLKPEDTAVYYCATDLRTRNYDYWGQGTQVTVSS
polyreactivity (PSR sort gate): high polyreactivity

QVQLVESGGGLVQAGGSLRLSCAASGSTFYLYAMGWYRQAPGKERELVAGITGSGGRTYYADSVKGRFTISRDNAKNTVYLQLNSLKPEDTAVYYCNKRRASWSPAGGTYNYWGQGSQVTVSS
polyreactivity (PSR sort gate): low polyreactivity

QVQLVESGGGLVQAGGSLRLSCAPSGRIFAGYTMGWYRQAPGKERELVAAISWSGGRTYYADSVKGRFTISRDNAKNTVYLQMNSLKPEDTAVYYCAKDGRYYSHYNYWGQGTQVTVSS
polyreactivity (PSR sort gate): high polyreactivity

QVQLVESGGGLVQAGGSLRLSCAASGGIFGTYTMGWYRQAPGKERELVAAIRSSSGRTYYADSVKGRFTISRDTAKNTVYLQMNSLKPEDTAVYYCNRAYTIQDDYWGQGTQVTVSS
polyreactivity (PSR sort gate): high polyreactivity

QVQLVESGGGLVQAGGSLRLSCAASGSILYLNAMGWYRQAPGKERELVAAITWSGGSTSYADSVKGRFTISRDNAKNTVYLQMISLKPEDTAVYYCAAVRRGYGGVYYAGGYWGQGTQVTVSS
polyreactivity (PSR sort gate): low polyreactivity

QVQLVESGGGLVQAGGSLRLSCAASGRIFTRYAMGWYRQAPGKERELVAAISYGGGGTYYADSVKGRFTISRDNAKNTVYLQMNSLKPEDTAVYYCATDDPLSQINEQGMDYWGQGTQVTVSS
polyreactivity (PSR sort gate): low polyreactivity

QVQLVESGGGLVQAGGSLRLSCAASGSILQSYAMGWYRQAPGKERELVAAISGSGGSTYYADSVKGRFTISRDNAKNTVYLQMNSLKPEDTAVYYCAKGPLYRTSRGEFGYWGQGTQVTVAS
polyreactivity (PSR sort gate): low polyreactivity

QVQLVESGGGLVQAGGSLRLSCAASGSIFPYYAMGWNRQAPGKERELVATITSRGGSTYYADSVKGRFTISRDNAKNTVYLQMNSLKPEDTAVYYCAKEYRYYRRRYDYWGQGTQVTVSS
polyreactivity (PSR sort gate): high polyreactivity

QVQLVESGGGLVQAGGSLRLSCAASGFIYTSYTMGWYRQAPGKERELVAAISYRGGRTYYADSVNGRFTISRDNAKNTVYLQMNSLKPEVTAVYYCAADRVNREFDYWGQGTQVTVSS
polyreactivity (PSR sort gate): high polyreactivity

QVQLVESGGGLVQAGGSLRLSCAGSGFTFKWYAMGWYRQAPGKERELVAGISRGGTTNYADSVKGRFTISRDNAKNTVYLQLNSLKPEDTAVYYCAKTSYVSYRGLTYYYWGQGTQVTVSS
polyreactivity (PSR sort gate): high polyreactivity

QVQLVESGGGLVQAGGSLRLSCAASGSIFPVYAMGWYRQAPGKERELVATIRSGGARTYYADSVKGRFTISRDNAKNTVYLQMNSLKPEDTAVYYCATRWPHYGGYYYWGQGTQVTVSS
polyreactivity (PSR sort gate): high polyreactivity

QVQLVESGGGLVQAGGSLRLSCAASGFTFGGNPMGWYRQAPGKERELVAAIRRGGSTYYADSVKGRFTISRDNAKNTVYLQMNSLKPEDTAVYYCAAAIPGKYSNDDWGQGTQVTVSS
polyreactivity (PSR sort gate): high polyreactivity

QVQLVESGGGLVQAGVILRLSCAASGLIFGLYAMGWYRQAPGKERELVAAISYRTDSTYADSVKGRFTISRDNAKNTVYLQMNSLKPEDTAVYYCAADLRVSVRYYYWGQGTQVTVSS
polyreactivity (PSR sort gate): low polyreactivity

QVQLVESGGGLVQAGGSLRLSCAASGNIFSAYAMGWYRQAPGTERELVATITSGGITYYADSVKGRFTISRDNAKNSVYLQKNSLKPEDTAVYYCNADHHGQAEYGYWGHGTQVTVSS
polyreactivity (PSR sort gate): low polyreactivity

QVQLVESGGGLVQAGGSLRLSCAASGFIFAYYAMGWYRQAPGKERELVAAISKRGGSTYYADSVKGRFTISRDNAKNTVYLQMNSLKPEDTAVYYCAADGHGGYGYWGQGTQVTVSS
polyreactivity (PSR sort gate): high polyreactivity

QVQLVESGGGLVQAGGSLRLSCAASGSILAGYAMGWYRQAPGKERELVAAITTGGGSTYYADSVKGRFTISRDNAKNTVYLQMNSLKPEDTAVYYCAAYRKPGSWTWWVRGYGYWGQGTQVTVSS
polyreactivity (PSR sort gate): low polyreactivity
